Test: yeast display, Sf9 membrane polyspecificity reagent, FACS + sequencing; frameworks hold sequencing errors
Procedure, shortened: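 Nanobodies from a synthetic yeast display library (Saccharomyces cerevisiae BJ5465), induced 36–48 hours with galactose, were stained 1 hour at 4 °C with 10% biotinylated, detergent-solubilized Sf9 membrane reagent, enriched on streptavidin microbeads, then FACS-sorted. Anti-HA (expression) and streptavidin (reagent binding) fluorescence set low and high (top ~1%) gates. Polyreactivity labels come from the gate of origin. Genes were colony-PCR amplified, MiSeq 2 × 250 sequenced and filtered by CDR length.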

Row | Sequence | polyreactivity (PSR sort gate)
1 | QVQLVESGGGLVQAGGSLRLSCAASGSIFTVYAMGWYRQAPGKERELVAVINYRGGNTYYADSVKGRFTISRDNAKNTVYLQMNSLKPEDTAVYNCATEVSWHWYQLSVPRMDYWGQGTQVTVSS | low polyreactivity
2 | QVQLVESGGGLVQAGGSLRLSCAASGSIFTVYTMGWYRQAPGKVRELVAAINSRGGTTYYADSVKGRFTISRDNAKNTLYLQMNSLKPEDTAVYYCAAKQRPKSYGPGHYYWGQGTQVTVSS | high polyreactivity
3 | QVQLVESGGGLVQAGGSLRLSCAASGSIFTWYAMGWYRQAPGKERELVAAITRGGSTYADSVKGRFTISRDNAKYTVYLQMNSLKPEDTAVYYCNAVYGVYDFNYWGQGTQVTVSS | low polyreactivity
4 | QVQLVESGGGLVQAGGSLRLSCAASGSIFTYKAKVRYRQAPGKERELVAAISASGGSTYYADSVKGRFTISRDNAKHTVYVQMNSLKPEDTALYYCNAYQTSTPLFPGYGYWGQGTQVTVSS | low polyreactivity
5 | QVQLVESGGGLVQAGGSLRLSCAASGSIFTYNAMGWYRQAPGKERELVAAISSRGTSTYYADSVKGRFTISRDNAKNTVYLQMNSLKPEDTAVYYCAAVWVSQRRPWGNTNNYWGQGTQVTVSS | high polyreactivity
6 | QVQLVESGGGLVQAGGSLRLSCAASGSIFTYNAMGWYRQAPGKERELVAAITGDDITNYADSVKGRFTISRDNAKNTVYLQMNSLKPEYTAVYYCARDQWVFGSSPVQAGEYWGQGTQVTVSS | low polyreactivity
7 | QVQLVESGGGLVQAGGSLRLSCAASGSIFTYNAMGWYRQAPGKERELVASITWSGGSTYYADSVKGRFTISRDNAKNTVYLQMNSLKPEDTAVYYCAAKRVHGATGYWGQGTQVTVSS | high polyreactivity
8 | QVQLVESGGGLVQAGGSLRLSCAASGSIFTYNGMGWYRQAPGKEREFVAAITWTGGSTYADSVKGRFTISRDNAKNTVYLQMNSLKPEDTAVYYCAAVRRISWYTPVNTRRYYYWGQGTQVTVSS | high polyreactivity
9 | QVQLVESGGGLVQAGGSLRLSCAASGSIFTYNVMGWYRHAPGKERELVAAIRTRGDRTYYADSVKGRFTISRDNAKNTVYLQMNSLKPDDTAVYYCAAAGSYYSHEYWGQGTQVTVSS | high polyreactivity
10 | QVQLVESGGGLVQAGGSLRLSCAASGSIFTYYAMGWYRQAPGKERELVAAISLDGGSTYYADSVKGRFTISRDNAKNTVYLQMNSLKPEDTAVYYCAADYRFIPYTYLYDYWGQGTQVTVSS | low polyreactivity
11 | QVQLVESGGGLVQAGGSLRLSCAASGSIFTYYAMGWYRQAPGKERELVAAISWRSGSTYYADSVKGRFTISRDNAKNTVYLQMNSLKPEDTAVYYCAAEDFDYAVWYDYWGQGTQVTVSS | high polyreactivity
12 | QVQLVESGGGLVQAGGSLRLSCAASGSIFTYYAMGWYRQAPGKERELVAAISWSGGSTYYADSVKGRFTISRDNAKNTVYLQMNSLKPEDTAVYYCAAGRFYKWSRYQEYDYWGQGTQVTVSS | low polyreactivity
13 | QVQLVESGGGLVQAGGSLRLSCAASGSIFTYYAMGWYRQAPGKERELVAAITWGGSTYADSVKGRFTISRDNAKNTVYLQMNSLKPEDTAVYYCAAQFRSYRYPAYHYDYWGQGTQVTVSS | low polyreactivity
14 | QVQLVESGGGLVQAGGSLRLSCAASGSIFTYYAMGWYRQAPGKERELVATITGLGGRTYYADSVKGRFTISRDIAKNTVYLQMNSLKPEDTAVYYCAVVPETRYYYWGHGTQVTVSS | high polyreactivity
15 | QVQLVESGGGLVQAGGSLRLSCAASGSIFTYYAMGWYRQAPGKERELVDAITWDDDGTYYADSVKGRFTISRDNAKNTVYLQMNSLKPEDTAVYYCAADDGDPYDYWGQGSQVTVSS | low polyreactivity
16 | QVQLVESGGGLVQAGGSLRLSCAASGSIFTYYVMGWYRQAPGKERELVAGITGGGSTNYADSVKGRFTISRDNAKNTVYLQMNSLKPEDTAVYYCNAYEYLSAGYDYWGQGTQVTVSS | low polyreactivity
17 | QVQLVESGGGLVQAGGSLRLSCAASGSIFTYYVMGWYRQAPGKERELVAVISRRGGRTYYADSVKGRFTISRDNAKNTVYLQMNSLKPEDTAVYYCATTYKTRYGGRYRYYYWGQGTQVTVSS | high polyreactivity
18 | QVQLVESGGGLVQAGGSLRLSCAASGSIFVAYEMGWYRPAPGKERELVAAIDSVGRTNYADSVKGRFTISRDNAKNTDYLQMNSLKRVDTSVYSCNADQYYSFYDPDDYWGQGTQVTVSS | low polyreactivity
19 | QVQLVESGGGLVQAGGSLRLSCAASGSIFVDNAMGWYRQAPGTERELVAAINWSGGSTYYADSVKGRFTISRDNAKNTVYLQMNSLKPEDTAVYYCIAARPGQTWDEQSWYDYWGQGTQVTVSS | low polyreactivity
20 | QVQLVESGGGLVQAGGSLRLSCAASGSIFVENAMGWNRQAPGKEREFVAAITRSGGSTYYADSVKGRFTISRDNAKNTVYLQMKILKPEDTAVYYCSARIWDEQPAGGYYWGQGTQVTVSS | low polyreactivity
21 | QVQLVESGGGLVQAGGSLRLSCAASGSIFVEYAMGWYRQAPGKERELVAAISYSGSSTNYADSVKGRFTISRDNAKNTVYLQMNSLKPEDTAVYYCNADGTGGEQKPYYELDYWGQGTQVTVSS | low polyreactivity
22 | QVQLVESGGGLVQAGGSLRLSCAASGSIFVEYAMGWYRQAPGKERELVASITWSSTSTYYADSVKGRFTISRDNAKNTVYLQMNSLKPEDTAVYYCNTEDYQYAPYEYDYWGQGTQVTVSS | low polyreactivity

Row | Sequence | polyreactivity (PSR sort gate)
23 | QVQLVESGGGLVQAGGSLRLSCAASGSIFVEYAMGWYRQAPGQERELVAAISYSGSSTNYADSVKGRFTISRDNAKNTVYLQINSLKPEDTAVYYSNADGTGGEQKPYYELDYWGQGTQVTVSS | low polyreactivity
24 | QVQLVESGGGLVQAGGSLRLSCAASGSIFVEYVMGWYRQAPGKERELVADISWRDGDTYYADSVKGRFTISRDNAKNTVYLQMNSLKPEDTAVYFCAADVIVPESYGYWPLSYYYWGQGTQVTVSS | low polyreactivity
25 | QVQLVESGGGLVQAGGSLRLSCAASGSIFVFNAMGWYRQAPGKERELVAAITSGGRTYYADSVKGRFTISRDNAKNTVYLQMNSLKPEDTAVYYCARRYRARGSMYYWGQGTQVTVSS | high polyreactivity
26 | QVQLVESGGGLVQAGGSLRLSCAASGSIFVFYAMGWYRQAPGKERELVAAISSVGSTYYADSVKGRFTISRDNAKNTVYLQMNSLKPEDTAVYYCAAVTYYSGYYWGQGTQVTVSS | low polyreactivity
27 | QVQLVESGGGLVQAGGSLRLSCAASGSIFVFYAMGWYRQAPGKERELVAAISYRGGSTYADSVKGRFTISRDNEKNTVYLQMNSLKPEDTAVYYCAARGLVRSYDYWGQGTQVTVSS | high polyreactivity
28 | QVQLVESGGGLVQAGGSLRLSCAASGSIFVGYAMGRYRQAPGKERELVAAISSRGGSTYYADSVKGRFTISRDNAKNTVYLQMNSLKPEDTGVYYCAAEYRAWWYEYDYWGQGTQVTVSS | high polyreactivity
29 | QVQLVESGGGLVQAGGSLRLSCAASGSIFVGYAMGWYRQAPGKERELVAAISRSGGRTYYADSVKGRFTISRDNAKNTVYLQMISLKPEDTAVYYCARQRYEYRTTYYYWGQGTQVTVSS | high polyreactivity
30 | QVQLVESGGGLVQAGGSLRLSCAASGSIFVGYAMGWYRQAPGKERELVAAITGSGTRTYYADSVKGRFTISRDNAKNTVYLQMNSLKPEDTAVYYCAAPLSYKNVKYDYWGQGTQVTVSS | low polyreactivity
31 | QVQLVESGGGLVQAGGSLRLSCAASGSIFVGYAMGWYRQAPGKEREMVAAITGSGTRTYYADSVKGRFTISRDNAKNTVYLQMNSLKPEDTAVYYCAAPLSYKNVKYDYWGQGTQVTVSS | low polyreactivity
32 | QVQLVESGGGLVQAGGSLRLSCAASGSIFVHNDMGWYRQAPGKERELVATIDSAGGTYYADSVKGRFTISRDNAKNTVYLQMNSLKPEDTAVYYCAAYGPYVLSIYDYWGQGTQVTVSS | low polyreactivity
33 | QVQLVESGGGLVQAGGSLRLSCAASGSIFVHYAMGGYRQAPGKERELVAAISQRGGSTSYADSVKGRFTISRDNAKNTVYLQMNSLKPEDTAVYYCAAENWIGDYYWGQGTQVTVSS | low polyreactivity
34 | QVQLVESGGGLVQAGGSLRLSCAASGSIFVHYAMGWYRQAPGKERELVARISWRGNTYYADSVKGRFTISRDNAKNTVYLQMNSLKPEDTAVYYCAKDVRRSLVIWDVVYPHGYWGQGTQVTVSS | low polyreactivity
35 | QVQLVESGGGLVQAGGSLRLSCAASGSIFVIYAMGWYRQAPGKERELVAAITSGGNTTYADSVKGRFTISRDNAKNTVYLQMNSLKPEDTAVYYCAAYSYYTGDQYSYDYWGQGTQVTVSS | low polyreactivity
36 | QVQLVESGGGLVQAGGSLRLSCAASGSIFVKYAMGWYRQAPGKERELVAAISGSGGSTYYADSVKGRFTISRDNAKNTVYLQMNSLKPEDTAVYYCAAAYHGRHYYWGQGTQVTVSS | high polyreactivity
37 | QVQLVESGGGLVQAGGSLRLSCAASGSIFVLNAMGWYRQAPGKERELVAVISNIGGRTYYADSVKGRFTISRDNAKNTVYLQMNSLKPEDTAVYYCIFRSPSYEYDYWGQGTQVTVSS | low polyreactivity
38 | QVQLVESGGGLVQAGGSLRLSCAASGSIFVLNAMGWYRQAPGKEWELVAVISNIGGRTYYADSVKGRFTISRDNAKNTVYLQLNSLKPEDTAVYSCAAPFTSTFDYWGQVTQVTVSS | low polyreactivity
39 | QVQLVESGGGLVQAGGSLRLSCAASGSIFVLNAMGWYRQAPGQERELVAAITNVGSTYYADSVKGRFTISRDNAKNTVYLQMNSLKPEDTAVYYCAAVLPFKYDYWGQGTQVTVSS | low polyreactivity
40 | QVQLVESGGGLVQAGGSLRLSCAASGSIFVLSAMGWYRQAPGKEREFFAAITWSGDSTYYADSVKGRFTISRDNAKNTVYLQMNSLKPEDTAVYYCAAEGNTWPADFLSYYFEFDEYWGQGTQVTVSS | low polyreactivity
41 | QVQLVESGGGLVQAGGSLRLSCAASGSIFVLYAMGWYRQAPGKERELVAAITSAGSTYYADSVKGRFTISRDNAKNTVYLQMNSLKPEDTAVYYCAARRGASQRRYNYWGQGTQVTVSS | high polyreactivity
42 | QVQLVESGGGLVQAGGSLRLSCAASGSIFVNNALGWYRQAPGKERELVAAISSRSSRTFYADSVKGRFTISRDNAKNTVYLQMNSLKPEDTAVYYCAVKKRAPDGDYWGQGTQVTVSS | high polyreactivity
43 | QVQLVESGGGLVQAGGSLRLSCAASGSIFVNNAMGWYRQAPGKERELVAAIRRGSSTNYADSVKGRFTISRDNAKNTVYLQMNSLKPEDTAVYDCAADHDDDEAQNYDYLGQGTQVTVSS | low polyreactivity
